Laboratory results from the supplement of paper PMC9112550, “Optimization of the antimicrobial peptide Bac7 by deep mutational scanning” (BMC Biology, 2022).

System: Escherichia coli TOP10
Assay: shrunken log2 fold change of peptide-encoding DNA abundance (4.5 h post-induction vs induction); higher = less antimicrobial activity (less host growth inhibition)
Conditions: time post-induction: 4.5 h; library: site-saturation at positions 5, 18, 19, 20
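Also: peptides expressed intracellularly from a pBAD plasmid library in pooled LB shake-flask culture, induced with 0.3% L-arabinose, DNA abundance read by NGS, three biological replicates, DESeq2 with apeglm shrinkage.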

RRIRHRPPRLPRPRPRPYSDPRP
shrunken log2 fold change: -1.17

RRIRRRPPRLPRPRPRPQLTPRP
shrunken log2 fold change: 0.122

RRIRRRPPRLPRPRPRPKTAPRP
shrunken log2 fold change: 0.707

RRIRARPPRLPRPRPRPVFHPRP
shrunken log2 fold change: -0.253

RRIRTRPPRLPRPRPRPHFMPRP
shrunken log2 fold change: -0.339

RRIRVRPPRLPRPRPRPFMQPRP
shrunken log2 fold change: -0.285

RRIRVRPPRLPRPRPRPYAEPRP
shrunken log2 fold change: -0.0642

RRIRHRPPRLPRPRPRPNQRPRP
shrunken log2 fold change: 0.333

RRIRLRPPRLPRPRPRPETDPRP
shrunken log2 fold change: 0.0033

RRIRSRPPRLPRPRPRPMNGPRP
shrunken log2 fold change: -0.205

RRIRIRPPRLPRPRPRPLMFPRP
shrunken log2 fold change: -0.617

RRIRDRPPRLPRPRPRPYGAPRP
shrunken log2 fold change: 0.00308

RRIRFRPPRLPRPRPRPPNYPRP
shrunken log2 fold change: -0.023

RRIRARPPRLPRPRPRPGLYPRP
shrunken log2 fold change: -0.077

RRIRRRPPRLPRPRPRPAMAPRP
shrunken log2 fold change: 0.342

RRIRTRPPRLPRPRPRPMTAPRP
shrunken log2 fold change: 0.154

RRIRARPPRLPRPRPRPQDKPRP
shrunken log2 fold change: -0.132

RRIRLRPPRLPRPRPRPEAMPRP
shrunken log2 fold change: 0.284

RRIRYRPPRLPRPRPRPYPFPRP
shrunken log2 fold change: -0.0218

RRIRSRPPRLPRPRPRPIPQPRP
shrunken log2 fold change: -0.402

RRIRPRPPRLPRPRPRPRGFPRP
shrunken log2 fold change: 0.341

RRIRYRPPRLPRPRPRPMWFPRP
shrunken log2 fold change: 0.0169

RRIRFRPPRLPRPRPRPPEVPRP
shrunken log2 fold change: 0.795

RRIRNRPPRLPRPRPRPFKFPRP
shrunken log2 fold change: -0.423

RRIRDRPPRLPRPRPRPNLCPRP
shrunken log2 fold change: 0.0227

RRIRTRPPRLPRPRPRPERHPRP
shrunken log2 fold change: -0.0333

RRIRIRPPRLPRPRPRPKIAPRP
shrunken log2 fold change: 0.00729

RRIRLRPPRLPRPRPRPSPIPRP
shrunken log2 fold change: -0.0508

RRIRVRPPRLPRPRPRPLIQPRP
shrunken log2 fold change: -0.351

RRIRYRPPRLPRPRPRPHTTPRP
shrunken log2 fold change: -0.0318

RRIRARPPRLPRPRPRPFWGPRP
shrunken log2 fold change: 0.0148

RRIRARPPRLPRPRPRPYRKPRP
shrunken log2 fold change: -0.502

RRIRVRPPRLPRPRPRPGGYPRP
shrunken log2 fold change: 0.0682

RRIRHRPPRLPRPRPRPFLGPRP
shrunken log2 fold change: 0.0354

RRIRYRPPRLPRPRPRPIPDPRP
shrunken log2 fold change: 0.0657

RRIRWRPPRLPRPRPRPMQKPRP
shrunken log2 fold change: -0.0122

RRIRKRPPRLPRPRPRPTRTPRP
shrunken log2 fold change: 0.951

RRIRTRPPRLPRPRPRPIYYPRP
shrunken log2 fold change: -0.818

RRIRRRPPRLPRPRPRPNQLPRP
shrunken log2 fold change: -0.178

RRIRPRPPRLPRPRPRPLMQPRP
shrunken log2 fold change: 0.124

RRIRERPPRLPRPRPRPKTYPRP
shrunken log2 fold change: -0.771

RRIRKRPPRLPRPRPRPWYDPRP
shrunken log2 fold change: -0.153

RRIRRRPPRLPRPRPRPQEWPRP
shrunken log2 fold change: -0.0466

RRIRTRPPRLPRPRPRPCVCPRP
shrunken log2 fold change: -0.206

RRIRKRPPRLPRPRPRPQVDPRP
shrunken log2 fold change: 0.288

RRIRMRPPRLPRPRPRPQIYPRP
shrunken log2 fold change: -0.464

RRIRFRPPRLPRPRPRPRQRPRP
shrunken log2 fold change: 0.346

RRIRLRPPRLPRPRPRPNYVPRP
shrunken log2 fold change: -0.566

RRIRCRPPRLPRPRPRPIEVPRP
shrunken log2 fold change: -0.0598

RRIRERPPRLPRPRPRPILRPRP
shrunken log2 fold change: 0.109

RRIRRRPPRLPRPRPRPERQPRP
shrunken log2 fold change: 0.522

RRIRDRPPRLPRPRPRPEIGPRP
shrunken log2 fold change: 0.765

RRIRQRPPRLPRPRPRPAPWPRP
shrunken log2 fold change: 0.548

RRIRLRPPRLPRPRPRPAKVPRP
shrunken log2 fold change: -0.0169

RRIRWRPPRLPRPRPRPAFNPRP
shrunken log2 fold change: -0.116

RRIRYRPPRLPRPRPRPVVEPRP
shrunken log2 fold change: -0.34

RRIRYRPPRLPRPRPRPTHYPRP
shrunken log2 fold change: -0.867

RRIRGRPPRLPRPRPRPQTIPRP
shrunken log2 fold change: 0.28

RRIRIRPPRLPRPRPRPFTCPRP
shrunken log2 fold change: 0.0493

RRIRWRPPRLPRPRPRPDARPRP
shrunken log2 fold change: -0.018
